# Experimental data: patent US20150368338A1 (Janssen / Centocor, published 2015)
# Numbering of substitutions follows the chain as printed.
# T1: IFN-αF (human, UniProt P01568 24-189)
# T1 construct: also called IFN-α21; alpha F
# T1 chain: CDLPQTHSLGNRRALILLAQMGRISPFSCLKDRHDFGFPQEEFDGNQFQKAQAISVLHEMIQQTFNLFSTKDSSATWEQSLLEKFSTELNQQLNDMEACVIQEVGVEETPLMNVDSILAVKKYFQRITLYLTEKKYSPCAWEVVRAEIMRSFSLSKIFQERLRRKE
# B1: IFWM371 (antibody, V domains shown)
# VH: EVQLVQSGAEVKKPGESLKISCKGSGYSFTSYWIGWVRQMPGKGLEWMGIIDPSDSDTRYSPSFQGQVTISADKSISTAYLQWSSLKASDTAMYYCARHPGLNWAPDFDYWGQGTLVTVSS
# VL: not shown
# notes: VH IFWH591, VL PH9L4; parental mAb, IgG1/kappa; also called IFWB351
# B2: IFWM3316 (antibody, V domains shown)
# VH: B1 VH
# VL: DIQMTQSPSSLSASVGDRVTITCRASQSINEFLNWYQQKPGKAPKLLIYFASSLQSGVPSRFSGSGSGTDFTLTISSLQPEDFATYYCQQSYSTPLTFGQGTKVEIK
# notes: VH IFWH591, VL IFWL1022; converted mAb; also called IFWB3051
# B3: IFWM3315 (antibody, V domains shown)
# VH: B1 VH
# VL: B2 VL with N30T, E31S, F32S, Y92F, S93D, T94L
# notes: VH IFWH591, VL IFWL1017; converted mAb; also called IFWB3050
# B4: IFWM3302 (antibody, V domains shown)
# VH: B1 VH
# VL: B2 VL with E31R, F50A, S91A, Y92I, S93D, T94L, L96F
# notes: VH IFWH591, VL IFWL991; converted mAb; also called IFWB3037
# B5: IFWM3356 (antibody, V domains shown)
# VH: B1 VH with R59A
# VL: B2 VL with N30S, E31K, S93D, T94F, L96I
# notes: VH IFWH624, VL IFWL1026; converted mAb; also called IFWB3091
# B6: IFWM3317 (antibody, V domains shown)
# VH: B1 VH
# VL: B2 VL with N30S, E31K, S93D, T94F, L96I
# notes: VH IFWH591, VL IFWL1026; converted mAb; also called IFWB3052
# B7: IFWM3306 (antibody, V domains shown)
# VH: B1 VH
# VL: B2 VL with N30T, E31N, Y92L, S93D, T94F
# notes: VH IFWH591, VL IFWL1000; converted mAb; also called IFWB3041
# B8: IFWM3311 (antibody, V domains shown)
# VH: B1 VH
# VL: B2 VL with N30D, E31D, Y92H, S93T, T94L
# notes: VH IFWH591, VL IFWL1009; converted mAb; also called IFWB3046
# B9: IFWM3309 (antibody, V domains shown)
# VH: B1 VH
# VL: B2 VL with N30G, E31G, T94L, L96I
# notes: VH IFWH591, VL IFWL1006; converted mAb; also called IFWB3044
# B10: IFWM3304 (antibody, V domains shown)
# VH: B1 VH
# VL: B2 VL with N30G, E31S, F32A, S93D, T94F
# notes: VH IFWH591, VL IFWL997; converted mAb; also called IFWB3039
# B11: IFWM3310 (antibody, V domains shown)
# VH: B1 VH
# VL: B2 VL with N30G, E31K, F32S, S93D, T94F
# notes: VH IFWH591, VL IFWL1007; converted mAb; also called IFWB3045
# B12: IFWM3292 (antibody, V domains shown)
# VH: B1 VH with R59A
# VL: B2 VL with N30D, S91A, Y92H, T94F
# notes: VH IFWH624, VL IFWL999; converted mAb; also called IFWB3027
# B13: IFWM3307 (antibody, V domains shown)
# VH: B1 VH
# VL: B2 VL with N30G, E31D, S91A, Y92L, S93D, T94F
# notes: VH IFWH591, VL IFWL1001; converted mAb; also called IFWB3042
# B14: IFWM3321 (antibody, V domains shown)
# VH: B1 VH
# VL: B2 VL with N30D, E31G, F32A, S91A, S93D, T94F
# notes: VH IFWH591, VL IFWL1048; converted mAb; also called IFWB3056
# B15: IFWM3314 (antibody, V domains shown)
# VH: B1 VH
# VL: B2 VL with N30D, E31R, F32A, Y92F, S93D, T94F
# notes: VH IFWH591, VL IFWL1014; converted mAb; also called IFWB3049
# B16: IFWM3319 (antibody, V domains shown)
# VH: B1 VH
# VL: B2 VL with N30T, E31G, F50A, Y92H, S93D, T94F
# notes: VH IFWH591, VL IFWL1041; converted mAb; also called IFWB3054
# B17: IFWM3323 (antibody, V domains shown)
# VH: B1 VH
# VL: B2 VL with N30T, E31N, F32H, S91A, Y92H, S93N, T94F
# notes: VH IFWH591, VL IFWL1053; converted mAb; also called IFWB3058
# B18: IFWM3301 (antibody, V domains shown)
# VH: B1 VH
# VL: B2 VL with N30D, E31G, F32S, S93D, T94F
# notes: VH IFWH591, VL IFWL983; converted mAb; also called IFWB3036
# B19: IFWM3303 (antibody, V domains shown)
# VH: B1 VH
# VL: B2 VL with N30G, E31S, T94I, L96I
# notes: VH IFWH591, VL IFWL992; converted mAb; also called IFWB3038
# B20: IFWM3312 (antibody, V domains shown)
# VH: B1 VH
# VL: B2 VL with N30D, E31G, F32A, Y92F, S93D, T94F
# notes: VH IFWH591, VL IFWL1010; converted mAb; also called IFWB3047
# B21: IFWM3318 (antibody, V domains shown)
# VH: B1 VH
# VL: B2 VL with N30S, F32Y, Y92H, T94L, L96I
# notes: VH IFWH591, VL IFWL1038; converted mAb; also called IFWB3053
# B22: IFWM3291 (antibody, V domains shown)
# VH: B1 VH
# VL: B2 VL with N30D, S91A, Y92H, T94F
# notes: VH IFWH591, VL IFWL999; converted mAb; also called IFWB3026
# B23: IFWM3308 (antibody, V domains shown)
# VH: B1 VH
# VL: B2 VL with N30A, Y92I, S93D, T94F
# notes: VH IFWH591, VL IFWL1004; converted mAb; also called IFWB3043
# B24: IFWM3313 (antibody, V domains shown)
# VH: B1 VH
# VL: B2 VL with E31N, Y92F, S93N, T94L, L96I
# notes: VH IFWH591, VL IFWL1013; converted mAb; also called IFWB3048
# B25: IFWM3305 (antibody, V domains shown)
# VH: B1 VH
# VL: B2 VL with N30S, E31K, Y92N, S93T, T94L, L96F
# notes: VH IFWH591, VL IFWL998; converted mAb; also called IFWB3040
# B26: IFWM3320 (antibody, V domains shown)
# VH: B1 VH
# VL: B2 VL with E31G, F32V, Y92H, S93D, T94F
# notes: VH IFWH591, VL IFWL1047; converted mAb; also called IFWB3055
# Target: T2, human IFN-ω (human, UniProt P05000 24-195)
# T2 construct: also called interferon omega
# Experiment: ProteOn, one antigen concentration
# Excerpt: (§1) To increase the assay throughput, only one concentration of the individual antigen was used.
row,Binder,Kd [pM]
1,B1,1060
2,B2,42
3,B3,63
4,B4,52
5,B5,274
6,B6,16
7,B7,20
8,B8,12
9,B9,55
10,B10,32
11,B11,65
12,B12,18
13,B13,46
14,B14,33
15,B15,20
16,B16,34
17,B17,73
18,B18,18
19,B19,13
20,B20,13
21,B21,18
22,B22,28
23,B23,38
24,B24,56
25,B25,31
26,B26,21

# Target: T3, IFN-αC (human, UniProt P01566 24-189)
# T3 construct: also called IFN-α10; alpha C
# Experiment: ProteOn, one antigen concentration
# Excerpt: as §1
row,Binder,Kd [pM]
1,B1,865
2,B2,42
3,B3,59
4,B4,83
5,B6,133
6,B7,27
7,B8,36
8,B9,109
9,B10,26
10,B11,57
11,B12,123
12,B13,62
13,B14,33
14,B15,26
15,B16,52
16,B18,24
17,B19,79
18,B21,30
19,B22,45
20,B23,52
21,B25,114
22,B26,20

# Target: T1, IFN-αF
# Experiment: ProteOn, one antigen concentration
# Excerpt: as §1
row,Binder,Kd [pM]
1,B1,775
2,B2,33
3,B3,50
4,B4,72
5,B6,121
6,B7,25
7,B8,21
8,B9,140
9,B10,32
10,B11,40
11,B12,98
12,B14,24
13,B15,21
14,B16,44
15,B17,48
16,B18,29
17,B19,134
18,B20,20
19,B21,34
20,B22,51
21,B23,53
22,B24,84
23,B25,113
24,B26,13

# Target: T4, IFN-αJ1 (human, UniProt P01567 24-189)
# T4 construct: also called IFN-α7; alpha J1
# Experiment: ProteOn, one antigen concentration
# Excerpt: as §1
row,Binder,Kd [pM]
1,B1,4230
2,B2,70
3,B3,134
4,B4,231
5,B6,206
6,B7,86
7,B8,56
8,B9,275
9,B10,53
10,B11,101
11,B12,295
12,B13,305
13,B14,79
14,B15,39
15,B16,151
16,B17,144
17,B18,74
18,B19,157
19,B20,68
20,B21,119
21,B22,122
22,B23,203
23,B24,221
24,B25,154
25,B26,61

# Target: T5, IFN-α4a (human, UniProt P05014 24-189)
# T5 construct: also called IFN-αM1
# Experiment: ProteOn, one antigen concentration
# Excerpt: as §1
row,Binder,Kd [pM]
1,B2,168
2,B3,240
3,B4,268
4,B6,370
5,B7,147
6,B8,223
7,B9,383
8,B10,120
9,B11,177
10,B12,613
11,B13,426
12,B14,159
13,B15,92
14,B16,274
15,B17,337
16,B18,146
17,B19,299
18,B20,144
19,B21,252
20,B22,317
21,B23,246
22,B24,354
23,B25,223
24,B26,89

# Target: T6, IFN-αG (human, UniProt P01569 24-189)
# T6 construct: also called IFN-α5; alpha G
# Experiment: ProteOn, one antigen concentration
# Excerpt: as §1
row,Binder,Kd [pM]
1,B1,263
2,B2,87
3,B3,61
4,B4,98
5,B6,126
6,B7,29
7,B8,56
8,B9,120
9,B10,37
10,B11,54
11,B12,49
12,B13,58
13,B14,36
14,B15,28
15,B16,49
16,B17,94
17,B18,29
18,B19,82
19,B20,13
20,B21,40
21,B22,67
22,B23,45
23,B24,118
24,B25,127
25,B26,33

# Target: T7, IFN-αWA (human, UniProt P05015 24-189)
# T7 construct: also called IFN-α16; alpha WA
# Experiment: ProteOn, one antigen concentration
# Excerpt: as §1
row,Binder,Kd [pM]
1,B1,1390
2,B2,73
3,B3,115
4,B4,168
5,B6,162
6,B7,70
7,B8,72
8,B9,139
9,B10,92
10,B11,91
11,B12,72
12,B13,162
13,B14,58
14,B15,42
15,B16,107
16,B17,121
17,B18,79
18,B19,168
19,B20,38
20,B21,91
21,B22,125
22,B23,99
23,B24,155
24,B25,201
25,B26,41
